Consider five molecules from patent US20260193644A1, “Compositions and Methods For Modulation of Tumor Suppressors and Oncogenes” (FLAGSHIP PIONEERING INNOVATIONS VII, LLC, priority 2022, published 2026).

What all share (format): cell-based
The test system of experiment [1] is HCT116 colon cancer cell line. The experiment in a line: Maestro Z impedance-based assay on HCT116 cells stably over-expressing target protein. The conditions noted are these: 2 days. As for the experimental part: Over-expression: Stable over-expression tumor cell lines were made by transduction using lentivirus. For virus production, HEK-293T cells were cultured in DMEM with high glucose and GlutaMAX™ medium (ThermoFisher) supplemented with 10% FBS. After 24 h, cells were transfected using lipofectamine 3000 (ThermoFisher) of Lentiviral packaging plasmid mix (CELLECTA) and pGenLenti plasmids (GenScript Inc) containing: 1) no insert, 2) Target Protein encoding sequence, and 3) the AP2A1 protein (positive control for cell proliferation; https://doi.org/10.1038/sj.one.1205216), into HCT116 (Colon cancer cell line; ATCC). A Myc-tag (EQKLISEEDL) was added to the c-terminus of the expressed protein. After 48 hr post-transfection, culture media containing viruses was collected, loaded onto a 10 ml syringe and filtered through a 0.45 μm filter. […]
Maestro Z Impedance-based assay: The Maestro Z platform (Axion Biosystems) uses impedance measurements (ohms, (2) to quantify the presence of cells on the electrode. Since impedance is noninvasive and label-free, impedance assay is used to quantify dynamic cellular growth over time. For impedance recording, cells were seeded in 96 well assay plate, and the plate was docked in the Maestro Z and the automatic environment controls set the chamber to 37° C. and 5% CO2. Impedance measurements were recorded every minute for the 2 days.

The test system of another experiment is Jurkat cells. Description: Caspase-Glo 3/7 apoptosis assay, peptide-treated Jurkat cells. The conditions noted are these: listed = significant. As to the method:
(§1) Cell Culture: Tumor cell lines HCT-116 (Colon Cancer Cell line, ATCC) and U2OS (Osteoscarcoma Cell line, ATCC) cells were grown adherently in ATCC-formulated McCoy's 5a medium supplemented with 10% FBS and 1× penicillin-streptomycin at 37° C. (5% CO2). Jurkat cells (acute T-cell leukemia cell line, ATCC) were grown as suspension cultures in ATCC-formulated RPMI-1640 supplemented with 10% FBS and 1× penicillin-streptomycin at 37° C. (5% CO2). HEP-G2 cells (Liver Cancer Cell line, ATCC) cells were grown adherently in ATCC-formulated Eagle's Minimum Essential Medium (EMEM) supplemented with 10% FBS and 1× penicillin-streptomycin at 37° C. (5% CO2).
(§2) Peptide Treatment: Target protein SEQ ID NO: 37997 was synthesized through Fluorenylmethyloxycarbonyl (Fmoc) protection group chemistry using Solid Phase Peptide Synthesis (SPPS). 5 μM of target peptide and control peptides were added to a 96 well plate containing 10,000 cells (100 μL/well). A white-walled 96-well plate adequate for cell culture and compatible with the luminometer was used. (Corning)
(§3) Apoptosis Assay: Following 24 hrs of peptide treatment, an equal volume reconstituted Caspase-Glo® 3/7 assay reagent mixture (Promega) was added to the cells. The contents of wells were gently mixed using a plate shaker at 300-500 rpm for 30 seconds. The plate was then Incubate at room temperature for 3 hours. The treated plates were then read for luminescence on Promega™ GloMax® Plate Reader. A blank reaction that contained caspase-Glo® 3/7 reagent, vehicle and cell culture medium without cells was used to measure background luminescence. The blank reaction values were subtracted from experimental values. A negative control that contained caspase-Glo® 3/7 reagent and vehicle-treated cells in medium was included to determine the basal caspase activity of the cell culture system. Significant difference in apoptosis was determined using ANOVA analysis by comparing cells treated with SEQ ID NO: 37997 peptide to cells treated with an irrelevant control peptide, or vehicle control treated cells.

The next experiment concerns HepG2 cells. The experiment in a line: Caspase-Glo 3/7 apoptosis assay, peptide-treated HepG2 cells. The conditions noted are these: listed = significant. As for the experimental part: Cell Culture: Tumor cell lines HCT-116 (Colon Cancer Cell line, ATCC) and U2OS (Osteoscarcoma Cell line, ATCC) cells were grown adherently in ATCC-formulated McCoy's 5a medium supplemented with 10% FBS and 1× penicillin-streptomycin at 37° C. (5% CO2). Jurkat cells (acute T-cell leukemia cell line, ATCC) were grown as suspension cultures in ATCC-formulated RPMI-1640 supplemented with 10% FBS and 1× penicillin-streptomycin at 37° C. (5% CO2). HEP-G2 cells (Liver Cancer Cell line, ATCC) cells were grown adherently in ATCC-formulated Eagle's Minimum Essential Medium (EMEM) supplemented with 10% FBS and 1× penicillin-streptomycin at 37° C. (5% CO2). […]
Apoptosis Assay: Following 24 hrs of peptide treatment, an equal volume reconstituted Caspase-Glo® 3/7 assay reagent mixture (Promega) was added to the cells. […] The treated plates were then read for luminescence on Promega™ GloMax® Plate Reader. A blank reaction that contained caspase-Glo® 3/7 reagent, vehicle and cell culture medium without cells was used to measure background luminescence. […] Significant difference in apoptosis was determined using ANOVA analysis by comparing cells treated with SEQ ID NO: 37997 peptide to cells treated with an irrelevant control peptide, or vehicle control treated cells.

The subject of the next experiment is U2OS cells. Description: Caspase-Glo 3/7 apoptosis assay, peptide-treated U2OS cells. Conditions: listed = significant. As for the experimental part: as §1, §2, §3
For a further experiment, the target named is T1, C3AR1 (Homo sapiens, UniProt Q16581).
T1 sequence (Q16581 1-482): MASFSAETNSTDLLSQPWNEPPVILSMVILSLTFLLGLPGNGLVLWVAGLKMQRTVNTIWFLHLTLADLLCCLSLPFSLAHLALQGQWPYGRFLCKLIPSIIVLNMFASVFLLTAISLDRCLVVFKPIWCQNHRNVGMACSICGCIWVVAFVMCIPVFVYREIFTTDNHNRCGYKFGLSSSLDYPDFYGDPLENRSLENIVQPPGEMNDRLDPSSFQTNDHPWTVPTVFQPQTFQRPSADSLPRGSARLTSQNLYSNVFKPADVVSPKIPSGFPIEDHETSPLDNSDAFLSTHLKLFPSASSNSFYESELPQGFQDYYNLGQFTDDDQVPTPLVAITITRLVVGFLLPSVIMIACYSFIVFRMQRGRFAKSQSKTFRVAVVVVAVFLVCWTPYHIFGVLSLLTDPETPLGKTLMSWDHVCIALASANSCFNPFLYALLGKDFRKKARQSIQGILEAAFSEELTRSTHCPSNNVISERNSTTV
The experiment in a line: PathHunter β-Arrestin C3AR1 human complement peptide GPCR agonist assay (gpcrMAX screening and hit-confirmation). The conditions noted are these: for % activity with respect to known agonist, C3A Receptor Agonist: hit-confirmation. As to the method: SEQ ID NO: 30949 blocks CXCR4 and cancer cell migration, making it suitable in the treatment of multiple cancers. Whereas SEQ ID NO: 34229 agonizes C3AR1, a key regulator of immune response and inflammation. The target proteins SEQ ID NO: 30949 and SEQ ID NO: 34229 were treated with gpcrMAX, which is a comprehensive panel covering 168 G protein-coupled receptors (GPCRs) from over 60 distinct receptor families. This panel utilizes PathHunter® β-Arrestin technology (Eurofins DiscoverX). PathHunter β-Arrestin GPCR cell lines are engineered to co-express the ProLink™ (PK) tagged GPCR and the Enzyme Acceptor (EA) tagged β-Arrestin. Activation of the GPCR-PK induces β-Arrestin-EA recruitment, forcing complementation of the two β-galactosidase enzyme fragments (EA and PK). The resulting functional enzyme hydrolyzes substrate to generate a chemiluminescent signal.
Cell Handling: PathHunter® cell lines were expanded from freezer stocks according to standard procedures. Cells were seeded in a total volume of 20 μL into white walled, 384-well microplates and incubated at 37° C. for the appropriate time prior to testing. […]
Signal Detection: Assay signal was generated through a single addition of 12.5 or 15 μL (50% v/v) of PathHunter® Detection reagent cocktail, followed by a one-hour incubation at room temperature. Microplates were read following signal generation with a PerkinElmer Envision™ instrument for chemiluminescent signal detection.
Data Analysis: Compound activity was analyzed using CBIS data analysis suite (ChemInnovation, CA). For agonist mode assays, percentage activity was calculated using the following formula: % Activity=100%×(mean RLU of test sample−mean RLU of vehicle control)/(mean MAX control ligand−mean RLU of vehicle control). For antagonist mode assays, percentage inhibition was calculated using the following formula: % Inhibition=100%×(1−(mean RLU of test sample−mean RLU of vehicle control)/(mean RLU of EC80 control−mean RLU of vehicle control)).

The test system of experiment [2] is HCT116 colon cancer cell line. Description: WST-1 proliferation assay on HCT116 cells stably over-expressing target protein. Conditions: low serum (0.1% FBS); 48 hours. As to the method: Over-expression: Stable over-expression tumor cell lines were made by transduction using lentivirus. For virus production, HEK-293T cells were cultured in DMEM with high glucose and GlutaMAX™ medium (ThermoFisher) supplemented with 10% FBS. After 24 h, cells were transfected using lipofectamine 3000 (ThermoFisher) of Lentiviral packaging plasmid mix (CELLECTA) and pGenLenti plasmids (GenScript Inc) containing: 1) no insert, 2) Target Protein encoding sequence, and 3) the AP2A1 protein (positive control for cell proliferation; https://doi.org/10.1038/sj.one.1205216), into HCT116 (Colon cancer cell line; ATCC). A Myc-tag (EQKLISEEDL) was added to the c-terminus of the expressed protein. After 48 hr post-transfection, culture media containing viruses was collected, loaded onto a 10 ml syringe and filtered through a 0.45 μm filter. For cell transduction, HCT116 colorectal cancer cells were seeded in 6-well plates, the virus was added to the cells. After post-transduction, stable cell mixed populations are selected for with puromycin for 14 days. Expression of the Target Protein and controls are confirmed by immunoblot of 50 μg of cell lysate using anti-myc-tag polyclonal antibody (CST).
Proliferation: Polyclonal cell lines that over-express the Target Protein or control, wild-type HCT-116 cells, were plated in 96 well plate (10,000 or 5,000 cells per well) grown in standard media in both low serum (0.1% FBS) and high serum (10% FBS) conditions, respectively. After 48 hours, the cells are subjected to the WST-1 ([…]) assay. The WST-1 assay (Sigma) is a measure of the metabolic activity of group of cells. The higher the metabolic activity the higher the proliferation rate. Significant differences in proliferation are determined by comparing protein-expressing cell lines with a stable cell line of the empty expression vector (control) using ANOVA analysis.
(Formazan colour is commonly taken as a measure of viable cells.)

No end group written: not given here.

Regarding “SEQ ID NO: 30462: target protein over-expressed (Myc-tagged) in stable HCT116 cell line; oncogene (METFEIFYLKCIRVNLISRQLNTFFLAVLLVVCMPCFHSVCTGKRT; cysteine pairing not given here; also: Myc tag; listed as Homo sapiens)”, in experiment [1], the “proliferation over time (impedance) on over-expression vs Empty Vector” value is “significantly increases proliferation”.

Consider “SEQ ID NO: 34224: ORF peptide; sequence only in Sequence Listing (MSFDHPEKNGPWPADPINLPSHG; listed as Homo sapiens)”, for which the “peptides inducing significant apoptosis vs vehicle control” value in the experiment on Jurkat cells is recorded as “SEQ ID NO: 34224”. The “z-score compared to vehicle control (peptides inducing significant apoptosis)” value with HepG2 cells is reported as “SEQ ID NO: 34224”.

For the molecule “SEQ ID NO: 34229: novel peptide GPCR ligand that agonizes C3AR1; sequence only in Sequence Listing (MWILRDRAVHELQAVLLALVLGR; listed as Homo sapiens)”, the “z-score compared to vehicle control (peptides inducing significant apoptosis)” value in the experiment with U2OS cells is recorded as “SEQ ID NO: 34229”. The “peptides inducing significant apoptosis vs vehicle control” value in the experiment on Jurkat cells is recorded as “SEQ ID NO: 34229”. In the experiment with C3AR1 (gpcrMAX panel), the “GPCR ligand mode at C3AR1” value is given as “agonist of C3AR1”. Further, the “% activity with respect to known agonist, C3A Receptor Agonist” value with C3AR1 (0.3 μM) and with C3AR1 (1 μM) was “significant activity” each time.

B1: AP2A: published oncoprotein, over-expressed positive control for cell proliferation (protein, UniProt O95782 1-977, looked up)
AP-2 complex subunit alpha-1: MPAVSKGDGMRGLAVFISDIRNCKSKEAEIKRINKELANIRSKFKGDKALDGYSKKKYVCKLLFIFLLGHDIDFGHMEAVNLLSSNKYTEKQIGYLFISVLVNSNSELIRLINNAIKNDLASRNPTFMCLALHCIANVGSREMGEAFAADIPRILVAGDSMDSVKQSAALCLLRLYKASPDLVPMGEWTARVVHLLNDQHMGVVTAAVSLITCLCKKNPDDFKTCVSLAVSRLSRIVSSASTDLQDYTYYFVPAPWLSVKLLRLLQCYPPPEDAAVKGRLVECLETVLNKAQEPPKSKKVQHSNAKNAILFETISLIIHYDSEPNLLVRACNQLGQFLQHRETNLRYLALESMCTLASSEFSHEAVKTHIDTVINALKTERDVSVRQRAADLLYAMCDRSNAKQIVSEMLRYLETADYAIREEIVLKVAILAEKYAVDYSWYVDTILNLIRIAGDYVSEEVWYRVLQIVTNRDDVQGYAAKTVFEALQAPACHENMVKVGGYILGEFGNLIAGDPRSSPPVQFSLLHSKFHLCSVATRALLLSTYIKFINLFPETKATIQGVLRAGSQLRNADVELQQRAVEYLTLSSVASTDVLATVLEEMPPFPERESSILAKLKRKKGPGAGSALDDGRRDPSSNDINGGMEPTPSTVSTPSPSADLLGLRAAPPPAAPPASAGAGNLLVDVFDGPAAQPSLGPTPEEAFLSELEPPAPESPMALLADPAPAADPGPEDIGPPIPEADELLNKFVCKNNGVLFENQLLQIGVKSEFRQNLGRMYLFYGNKTSVQFQNFSPTVVHPGDLQTQLAVQTKRVAAQVDGGAQVQQVLNIECLRDFLTPPLLSVRFRYGGAPQALTLKLPVTINKFFQPTEMAAQDFFQRWKQLSLPQQEAQKIFKANHPMDAEVTKAKLLGFGSALLDNVDPNPENFVGAGIIQTKALQVGCLLRLEPNAQAQMYRLTLRTSKEPVSRHLCELLAQQF
On to B1, for which the “proliferation (WST-1) on over-expression vs Empty Vector” value in experiment [2] is on record as “significantly increases proliferation”. For the same molecule, the “proliferation over time (impedance) on over-expression vs Empty Vector” value in experiment [1] was “significantly increases proliferation”.

B2: SEQ ID NO: 26966: ORF peptide; sequence only in Sequence Listing (peptide, listed as Homo sapiens)
chain: VSPRFLVLKSSPAHRDSDSPQTPRLRVMESRTLLLLFSGAVALIQTWADYNYNQGRNDLIFTLQLWKRQ
Take B2: the “z-score compared to vehicle control (peptides inducing significant apoptosis)” value in the experiment with HepG2 cells is listed as “SEQ ID NO: 26966”.
